{"source": "paper PMC3142614", "target": "recombinant AvrM-A Δ28 with an N-terminal hexahistidine tag (Melampsora lini (flax rust))", "experiment": "SEC-MALS", "data": [{"substance": "recombinant AvrM-A Δ28 with an N-terminal hexahistidine tag (natural protein)", "values": [{"measurement": "stoichiometry N", "value": 2}]}]}
